This note sets out measurements from patent US20190263918A1 (SHANGHAI JIAO TONG UNIVERSITY SCHOOL OF MEDICINE, published 2019).

The target in experiment [1] is T1, human FcγRIIB extracellular domain protein (human, UniProt P31994 43-217).
T1 construct: extracellular domain; SPR: His-tagged, immobilised; ELISA: biotinylated; also called hFcγRIIB; CD32b
T1 sequence (looked up): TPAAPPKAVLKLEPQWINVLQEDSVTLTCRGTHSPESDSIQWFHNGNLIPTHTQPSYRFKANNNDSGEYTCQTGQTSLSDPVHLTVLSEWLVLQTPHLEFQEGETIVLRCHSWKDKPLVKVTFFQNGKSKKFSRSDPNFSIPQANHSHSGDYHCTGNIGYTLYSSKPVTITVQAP
The experiment is described as follows: SPR (refers to Table 4, Fc fragments).

The target in experiment [2] is T2, human FcγRIIA-R131 extracellular domain protein (human, UniProt P12318 34-217).
T2 construct: extracellular domain; SPR: His-tagged, immobilised; ELISA: biotinylated; also called hFcγRIIA-R131; CD32a
T2 sequence (looked up): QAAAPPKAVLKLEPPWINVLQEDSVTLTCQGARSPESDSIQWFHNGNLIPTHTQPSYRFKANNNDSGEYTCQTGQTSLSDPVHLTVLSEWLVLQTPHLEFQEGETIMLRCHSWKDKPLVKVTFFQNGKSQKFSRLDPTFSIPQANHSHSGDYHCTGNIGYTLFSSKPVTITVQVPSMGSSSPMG
Briefly: ELISA, coated antibody, biotinylated FcγR extracellular domain. On the procedure:
The ELISA plate was coated with 100 μL antibody at an appropriate concentration overnight, supernatant being discarded. The plate was blocked with 1% BSA in PBS for 2 hours, followed by washing with PBST (PBS with 0.05% Tween 20). Then, biotinylated FcγR extracellular domain protein (Sino Biologic Inc., Beijing China) at a concentration as appropriate was added and incubated at room temperature for 1 hour, supernatant being discarded, followed by PBST wash. Streptavidin-HRP (BD Biosciences) was added and incubated at room temperature for 1 hour for detection of biotin protein. After removal of supernatant, developing solution was added to react for 20-40 minutes, and absorbance was determined at 650 nm (A650).

The target in experiment [3] is T1, human FcγRIIB extracellular domain …. Briefly: SPR; fold against G1. (In SPR one partner is held on a chip, and binding of the other changes the refractive index at the surface.)
For experiment [4], the target named is T3, human FcγRIIIA-F158 extracellular domain protein (human, UniProt P08637 17-208).
T3 construct: extracellular domain; SPR: His-tagged, immobilised; also called hFcγRIIIA-F158; CD16a
Briefly: SPR, Biacore T100, FcγR extracellular domain immobilised.

Experiment [5] addresses T4, human FcγRI extracellular domain protein (human, UniProt P12314 16-292).
T4 construct: extracellular domain; also called hFcγRI; CD64
The experiment is described as follows: SPR, Biacore T100, FcγR extracellular domain immobilised, 1:1 model.

Experiment [6] concerns the target T2, human FcγRIIA-R131 extracellular domain …. Described as above.
The target in experiment [7] is T1, human FcγRIIB extracellular domain …. Described as above.
The target is the same in experiment [8]. The experiment is described as follows: SPR; [lower of KD(hFcγRIIA-R131) and KD(hFcγRIIIA-F158)]/KD(hFcγRIIB).
Experiment [9] deals with T4, human FcγRI extracellular domain protein. Briefly: SPR, Biacore T100, FcγR extracellular domain immobilised.

T4 sequence (P12314 16-292): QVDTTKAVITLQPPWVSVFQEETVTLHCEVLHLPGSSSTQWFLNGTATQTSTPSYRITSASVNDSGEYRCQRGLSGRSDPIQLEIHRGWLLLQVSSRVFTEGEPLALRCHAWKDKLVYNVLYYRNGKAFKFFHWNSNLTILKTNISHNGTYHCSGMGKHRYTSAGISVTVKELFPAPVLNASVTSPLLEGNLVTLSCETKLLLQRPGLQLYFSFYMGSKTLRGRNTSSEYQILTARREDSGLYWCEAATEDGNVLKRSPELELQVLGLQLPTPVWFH
T3 sequence (P08637 17-208): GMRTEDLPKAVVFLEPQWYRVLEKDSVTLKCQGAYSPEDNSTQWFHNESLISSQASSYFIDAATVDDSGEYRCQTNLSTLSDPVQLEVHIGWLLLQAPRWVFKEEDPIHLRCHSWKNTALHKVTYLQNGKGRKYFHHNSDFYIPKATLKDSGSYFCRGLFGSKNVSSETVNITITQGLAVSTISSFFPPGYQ

B1: Anti-mCD40-hIgG2-GASDALIE (antibody)
heavy: EVQLVESDGGLVQPGRSLKLPCAASGFTFSDYYMAWVRQAPTKGLEWVASISYDGSSTYYRDSVKGRFTISRDNAKSTLYLQMDSLRSEDTATYYCGRHSSYFDYWGQGVMVTVSSASTKGPSVFPLAPCSRSTSESTAALGCLVKDYFPEPVTVSWNSGALTSGVHTFPAVLQSSGLYSLSSVVTVPSSNFGTQTYTCNVDHKPSNTKVDKTVERKCCVECPPCPAPELLAGPDVFLFPPKPKDTLMISRTPEVTCVVVDVSHEDPEVKFNWYVDGVEVHNAKTKPREEQYNSTYRVVSVLTVLHQDWLNGKEYKCKVSNKALPLPEEKTISKAKGQPREPQVYTLPPSRDELTKNQVSLTCLVKGFYPSDIAVEWESNGQPENNYKTTPPVLDSDGSFFLYSKLTVDKSRWQQGNVFSCSVMHEALHNHYTQKSLSLSPGK
light: DTVLTQSPALAVSPGERVTISCRASDSVSTLMHWYQQKPGQQPKLLIYLASHLESGVPARFSGSGSGTDFTLTIDPVEADDTATYYCQQSWNDPWTFGGGTKLELKRTVAAPSVFIFPPSDEQLKSGTASVVCLLNNFYPREAKVQWKVDNALQSGNSQESVTEQDSKDSTYSLSSTLTLSKADYEKHKVYACEVTHQGLSSPVTKSFNRGEC
notes: Chimeric anti-murine CD40 antibody
Take B1: the binding result in experiment [1] is given as “binds”.

B2: Anti-mCD40-hIgG2-NA (antibody)
heavy: EVQLVESDGGLVQPGRSLKLPCAASGFTFSDYYMAWVRQAPTKGLEWVASISYDGSSTYYRDSVKGRFTISRDNAKSTLYLQMDSLRSEDTATYYCGRHSSYFDYWGQGVMVTVSSASTKGPSVFPLAPCSRSTSESTAALGCLVKDYFPEPVTVSWNSGALTSGVHTFPAVLQSSGLYSLSSVVTVPSSNFGTQTYTCNVDHKPSNTKVDKTVERKCCVECPPCPAPPVAGPSVFLFPPKPKDTLMISRTPEVTCVVVDVSHEDPEVQFNWYVDGVEVHNAKTKPREEQFASTFRVVSVLTVVHQDWLNGKEYKCKVSNKGLPAPIEKTISKTKGQPREPQVYTLPPSREEMTKNQVSLTCLVKGFYPSDIAVEWESNGQPENNYKTTPPMLDSDGSFFLYSKLTVDKSRWQQGNVFSCSVMHEALHNHYTQKSLSLSPGK
light: B1 light
notes: Chimeric anti-murine CD40 antibody, heavy chain constant region G2-NA (N297A)
Take B2: the binding result in experiment [2] is listed as “no binding”.

B3: Fc fragment of heavy chain constant region V11(H1) (hIgG1 G237D/P238D/H268D/P271G/A330R) (other)
chain: PELLGDDSVFLFPPKPKDTLMISRTPEVTCVVVDVSDEDGEVKFNWYVDGVEVHNAKTKPREEQYNSTYRVVSVLTVLHQDWLNGKEYKCKVSNKALPRPIEKTISKAKGQPREPQVYTLPPSRDELTKNQVSLTCLVKGFYPSDIAVEWESNGQPENNYKTTPPVLDSDGSFFLYSKLTVDKSRWQQGNVFSCSVMHEALHNHYTQKSLSLSPGK
Usually Kd stands for the free concentration of one partner at which half of the binding sites on the other are occupied at equilibrium, for simple one-to-one binding. For the molecule B3, the “folds of increase in hFcγRIIB binding” value in [3] worked out at 94 fold. In addition, in [4], the binding result is “no binding”. Further, the equilibrium dissociation constant (Kd) in [5] was 230 nM; in [6] it was 3800 nM; in [7], 14 nM. The I/A ratio in experiment [8] amounted to 271.

B4: Fc fragment of heavy chain constant region G2 (hIgG2) (other)
chain: PPVAGPSVFLFPPKPKDTLMISRTPEVTCVVVDVSHEDPEVQFNWYVDGVEVHNAKTKPREEQFNSTFRVVSVLTVVHQDWLNGKEYKCKVSNKGLPAPIEKTISKTKGQPREPQVYTLPPSREEMTKNQVSLTCLVKGFYPSDIAVEWESNGQPENNYKTTPPMLDSDGSFFLYSKLTVDKSRWQQGNVFSCSVMHEALHNHYTQKSLSLSPGK
As to B4, in [3], the “folds of increase in hFcγRIIB binding” value was below 0.4 fold. Further, the binding result in [9] is given as “no binding”.
